Laboratory results published in patent publication US20230414781A1 (BLISS BIOPHARMACEUTICAL HANGZHOU, published 2023).

B1: 27B4H4L3 antibody (antibody, human IgG1, kappa)
heavy: EVQLVQSGAEVKKPGESLKISCKASGYTFTTYWIGWVRQMPGKGLEWMGIIYPGDGGSRYSPSFQGQVTISADKSISTAYLQWSSLKASDTAMYYCARGGNYISFPMYYWGQGTLVTVSSASTKGPSVFPLAPSSKSTSGGTAALGCLVKDYFPEPVTVSWNSGALTSGVHTFPAVLQSSGLYSLSSVVTVPSSSLGTQTYICNVNHKPSNTKVDKRVEPKSCDKTHTCPPCPAPELVGGPSVFLLPPKPKDTLMISRTPEVTCVVVDVSHEDPEVKFNWYVDGVEVHNAKTKPPEEQYNSTLRVVSVLTVLHQDWLNGKEYKCKVSNKALPAPIEKTISKAKGQPREPQVYTLPPSREEMTKNQVSLTCLVKGFYPSDIAVEWESNGQPENNYKTTPLVLDSDGSFFLYSKLTVDKSRWQQGNVFSCSVMHEALHNHYTQKSLSLSPGK
light: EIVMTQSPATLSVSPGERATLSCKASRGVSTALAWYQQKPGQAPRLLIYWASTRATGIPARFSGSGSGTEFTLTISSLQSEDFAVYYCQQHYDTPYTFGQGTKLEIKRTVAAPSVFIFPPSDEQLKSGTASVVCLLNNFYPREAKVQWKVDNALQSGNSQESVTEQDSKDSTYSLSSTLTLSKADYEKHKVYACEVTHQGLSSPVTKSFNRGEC
notes: also called 27B4H43L3
B2: 27B4H4L3-MMAE (antibody, human IgG1, kappa)
heavy: EVQLVQSGAEVKKPGESLKISCKASGYTFTTYWIGWVRQMPGKGLEWMGIIYPGDGGSRYSPSFQGQVTISADKSISTAYLQWSSLKASDTAMYYCARGGNYISFPMYYWGQGTLVTVSSASTKGPSVFPLAPSSKSTSGGTAALGCLVKDYFPEPVTVSWNSGALTSGVHTFPAVLQSSGLYSLSSVVTVPSSSLGTQTYICNVNHKPSNTKVDKRVEPKSCDKTHTCPPCPAPELVGGPSVFLLPPKPKDTLMISRTPEVTCVVVDVSHEDPEVKFNWYVDGVEVHNAKTKPPEEQYNSTLRVVSVLTVLHQDWLNGKEYKCKVSNKALPAPIEKTISKAKGQPREPQVYTLPPSREEMTKNQVSLTCLVKGFYPSDIAVEWESNGQPENNYKTTPLVLDSDGSFFLYSKLTVDKSRWQQGNVFSCSVMHEALHNHYTQKSLSLSPGK
light: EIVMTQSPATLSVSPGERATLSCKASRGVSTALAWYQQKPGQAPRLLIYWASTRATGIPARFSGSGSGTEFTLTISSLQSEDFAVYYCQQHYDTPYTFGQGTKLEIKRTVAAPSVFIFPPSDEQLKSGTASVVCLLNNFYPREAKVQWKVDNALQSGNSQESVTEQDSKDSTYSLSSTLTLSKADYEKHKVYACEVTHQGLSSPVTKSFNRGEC
modifications: may carry MC-Val-Cit-PAB-MMAE on an inter-chain disulfide cysteine; positions not given; MC-Val-Cit-PAB-MMAE drug-linker on cysteines of partially reduced inter-chain disulfide bonds; main peaks DAR2, DAR4, DAR6, minor DAR0 and DAR8; positions not given
notes: a mixture of DAR species; also called ADC made of 27B4H4L3 antibody

Assays:
[1] = molecular target: T1, B7-H3 on B7-H3-expressing cancer cells (UniProt Q5ZPR3 29-534, limits assumed); test: FACS on HT-29 (colon) cells
T1 construct: whole, on cells; Endogenous expression on tumour cell lines; also called B7-H3 expressing cells; CD276
T1 sequence (looked up): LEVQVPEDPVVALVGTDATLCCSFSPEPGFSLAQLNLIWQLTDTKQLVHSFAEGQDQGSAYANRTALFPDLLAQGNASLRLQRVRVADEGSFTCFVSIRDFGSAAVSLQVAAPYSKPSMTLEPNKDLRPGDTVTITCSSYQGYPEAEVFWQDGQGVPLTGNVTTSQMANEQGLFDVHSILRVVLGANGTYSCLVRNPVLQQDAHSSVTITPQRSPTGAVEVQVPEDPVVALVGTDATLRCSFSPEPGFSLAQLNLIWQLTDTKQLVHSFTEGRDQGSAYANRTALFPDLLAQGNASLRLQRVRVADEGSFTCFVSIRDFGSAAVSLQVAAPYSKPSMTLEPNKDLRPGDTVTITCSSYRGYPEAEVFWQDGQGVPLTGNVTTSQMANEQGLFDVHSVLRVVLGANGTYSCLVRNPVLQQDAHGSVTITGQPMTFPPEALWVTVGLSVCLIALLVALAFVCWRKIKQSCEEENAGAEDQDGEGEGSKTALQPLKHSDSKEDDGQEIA
Experimental: (§1) Screening for B7-H3-expressing cells were performed using FACS with 27B4H4L3 antibody and MFI of 27B4H4L3 to those cells shown in Table 2. FACS assay was also used to exam and compare the binding capabilities of the 27B4H4L3 antibody, BH73 antibody, 27B4H4L3-MMAE and BH73-Eribulin to B7-H3-expressing cells. To perform the assay, target cells and samples were incubated at 4° C. for 1 h. After wash, samples and secondary antibody (goat pAb to human IgG (FITC) (Abcam, ab97224)) were incubated. FACS was performed on […] (BD, Accuri C6 Plus) and mean fluorescence intensity (MFI) was reported. Three cell lines (U87MG, BT-474 and HT-29) representing B7-H3 high- and low-expressing cells were used to compare binding capacities of different antibody constructs and ADCs.

[2] = molecular target: T1, B7-H3 on B7-H3-expressing cancer cells; test: FACS on BT-474 (breast) cells
Experimental: as §1

[3] = molecular target: T1, B7-H3 on B7-H3-expressing cancer cells; test: FACS on U87 (glioma) cells
Experimental: as §1

Row | Binder | MFI [1] [MFI] | MFI [2] [MFI] | MFI [3] [MFI]
1 | B1 | 69500 | 126000 | 314000
2 | B2 | 65300 | 126000 | 290000
